Paper PMC2712734 (Nature structural & molecular biology, 2009)
Substitutions are numbered along the chain they refer to.

T1: GST-CHMP3, wild type (human, UniProt Q9Y3E7 1-222)
T1 sequence (looked up): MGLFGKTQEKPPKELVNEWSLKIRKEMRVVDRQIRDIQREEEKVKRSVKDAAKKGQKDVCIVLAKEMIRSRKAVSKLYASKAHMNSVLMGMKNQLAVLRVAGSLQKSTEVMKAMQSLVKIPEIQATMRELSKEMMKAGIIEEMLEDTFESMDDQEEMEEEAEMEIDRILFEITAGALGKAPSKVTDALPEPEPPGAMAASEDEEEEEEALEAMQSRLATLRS

T2: GST-CHMP3 V48D, A64D (human, UniProt Q9Y3E7 1-222, V48D | A64D)
T2 sequence (looked up): T1 sequence (looked up) with V48D, A64D

T3: GST-CHMP3 I168D, L169D (human, UniProt Q9Y3E7 1-222, I168D | L169D)
T3 sequence (looked up): T1 sequence (looked up) with I168D, L169D

T4: CHMP3 V48D, A64D (human, UniProt Q9Y3E7 1-222, V48D | A64D)
T4 sequence (looked up): T1 sequence (looked up) with V48D, A64D

T5: CHMP3 I168D, L169D (human, UniProt Q9Y3E7 1-222, I168D | L169D)
T5 sequence (looked up): T1 sequence (looked up) with I168D, L169D

B1: CHMP1B, pure recombinant (natural protein, human, UniProt Q7LBR1 1-199, looked up)
chain: MSNMEKHLFNLKFAAKELSRSAKKCDKEEKAEKAKIKKAIQKGNMEVARIHAENAIRQKNQAVNFLRMSARVDAVAARVQTAVTMGKVTKSMAGVVKSMDATLKTMNLEKISALMDKFEHQFETLDVQTQQMEDTMSSTTTLTTPQNQVDMLLQEMADEAGLDLNMELPQGQTGSVGTSVASAEQDELSQRLARLRDQV
B2: GST-IST1NTD, wild type (domain or fragment, human, UniProt P53990 1-189, looked up)
chain: MLGSGFKAERLRVNLRLVINRLKLLEKKKTELAQKARKEIADYLAAGKDERARIRVEHIIREDYLVEAMEILELYCDLLLARFGLIQSMKELDSGLAESVSTLIWAAPRLQSEVAELKIVADQLCAKYSKEYGKLCRTNQIGTVNDRLMHKLSVEAPPKILVERYLIEIAKNYNVPYEPDSVVMAEAPP
B3: IST1NTD (N-terminal domain of IST1, residues 1-189) (domain or fragment, human, UniProt P53990 1-189, looked up)
chain: B2 chain
B4: GST-CHMP3_(1-150) (domain or fragment, human, UniProt Q9Y3E7 1-150, looked up)
chain: MGLFGKTQEKPPKELVNEWSLKIRKEMRVVDRQIRDIQREEEKVKRSVKDAAKKGQKDVCIVLAKEMIRSRKAVSKLYASKAHMNSVLMGMKNQLAVLRVAGSLQKSTEVMKAMQSLVKIPEIQATMRELSKEMMKAGIIEEMLEDTFES
B5: CHMP3_(1-150) (domain or fragment, human, UniProt Q9Y3E7 1-150, looked up)
chain: B4 chain
B6: CHMP2A, full length, pure recombinant (natural protein, human, UniProt O43633 1-222, looked up)
chain: MDLLFGRRKTPEELLRQNQRALNRAMRELDRERQKLETQEKKIIADIKKMAKQGQMDAVRIMAKDLVRTRRYVRKFVLMRANIQAVSLKIQTLKSNNSMAQAMKGVTKAMGTMNRQLKLPQIQKIMMEFERQAEIMDMKEEMMNDAIDDAMGDEEDEEESDAVVSQVLDELGLSLTDELSNLPSTGGSLSVAAGGKKAEAAASALADADADLEERLKNLRRD

How the values were obtained:
[1] = molecular target: the molecule itself; test: negative-stain transmission electron microscopy
GST-IST1NTD E67A = GST-IST1NTD E67A (human, UniProt P53990 1-189, E67A); test: SPR
GST-IST1NTD Y165A = GST-IST1NTD Y165A (human, UniProt P53990 1-189, Y165A); test: SPR
GST-IST1NTD E168R = GST-IST1NTD E168R (human, UniProt P53990 1-189, E168R); test: SPR
GST-IST1NTD Y64D = GST-IST1NTD Y64D (human, UniProt P53990 1-189, Y64D); test: SPR
CHMP1B, pure recombinant = molecular target: B1; test: SPR
[2] = molecular target: the molecule itself; test: light scattering at 330 nm + negative-stain transmission electron microscopy
[3] = molecular target: B6; test: pull-down
[4] = molecular target: B6; test: negative-stain transmission electron microscopy
GST-CHMP3, wild type = molecular target: T1, GST-CHMP3, wild type; test: pull-down
GST-CHMP3 V48D, A64D = molecular target: T2, GST-CHMP3 V48D, A64D; test: pull-down
GST-CHMP3 I168D, L169D = molecular target: T3, GST-CHMP3 I168D, L169D; test: pull-down
CHMP3 V48D, A64D = molecular target: T4, CHMP3 V48D, A64D; test: negative-stain transmission electron microscopy
CHMP3 I168D, L169D = molecular target: T5, CHMP3 I168D, L169D; test: negative-stain transmission electron microscopy

Q: Does B1 bind [1]?
A: Result: binds

Q: And the “fold reduction of binding affinity against wild type IST1NTD” value (“fold reduction of binding affinity” below) (GST-IST1NTD E67A)?
A: The value was 6 fold.

Q: What about the “fold reduction of binding affinity” value (GST-IST1NTD Y165A) of the same binder?
A: The value was greater than 8 fold.

Q: And the “fold reduction of binding affinity” value (GST-IST1NTD E168R)?
A: Its value is greater than 8 fold.

Q: What about the “fold reduction of binding affinity” value (GST-IST1NTD Y64D) of the same binder?
A: The value was greater than 8 fold.

Q: With B2 as the binder, how does the Kd (CHMP1B, pure recombinant) read?
A: Its Kd is 22 µM.

Q: Does B3 bind [2]?
A: Result: binds

Q: Does B4 bind [3]?
A: Result: binds

Q: Does B5 bind [4]?
A: Result: binds

Q: Does B6 bind (GST-CHMP3, wild type)?
A: Result: binds

Q: Does B6 bind (GST-CHMP3 V48D, A64D)?
A: Result: binds

Q: Does B6 bind (GST-CHMP3 I168D, L169D)?
A: Result: binds

Q: Does B6 bind (CHMP3 V48D, A64D)?
A: Result: binds

Q: Does B6 bind (CHMP3 I168D, L169D)?
A: Result: binds
